# Data as given in paper doi:10.1101/2020.07.07.187567.
# Biological target: LhgR, L-2-HG catabolism regulator of Pseudomonas putida W619 (His6-tagged) (Pseudomonas putida W619)
# Assay: SEC
substance,measurement,value
"LhgR, L-2-HG catabolism regulator of Pseudomonas putida W619 (His6-tagged) (natural protein)",stoichiometry N,2
